Test results from patent publication US10227388B2, “Peptides and combination of peptides for use in immunotherapy against non-small cell lung cancer and other cancers” (immatics biotechnologies GmbH, priority 2015, dated 2019).

Molecular target: HLA-A*02:01 (Homo sapiens, UniProt P04439, D140Y/D185E/D98H/E176V/E277Q/G131W/G231S/I119V/I121R/I166T/I218V/L300P/L318F/N151K/N90K/P208A/P217A/Q86G/Q94H/R138H/R169H/T345S)
Assay: MHC binding assay (UV-ligand exchange, ELISA, peptide exchange yield)
Conditions: binding of HLA-class I restricted peptides to HLA-A*02:01
From the text: Candidate peptides for T cell based therapies according to the present invention were further tested for their MHC binding capacity (affinity). The individual peptide-MHC complexes were produced by UV-ligand exchange, where a UV-sensitive peptide is cleaved upon UV-irradiation, and exchanged with the peptide of interest as analyzed. Only peptide candidates that can effectively bind and stabilize the peptide-receptive MHC molecules prevent dissociation of the MHC complexes. To determine the yield of the exchange reaction, an ELISA was performed based on the detection of the light chain ([…]) of stabilized MHC complexes. The assay was performed as generally described in Rodenko et al. (Rodenko et al., 2006).
96 well MAXISorp plates (NUNC) were coated over night with 2-ug/ml streptavidin in PBS at room temperature, washed 4× and blocked for 1 h at 37° C. in 2% BSA containing blocking buffer. […] Peptide-MHC monomers of the UV-exchange reaction were diluted 100 fold in blocking buffer. Samples were incubated for 1 h at 37° C., washed four times, incubated with 2-ug/ml HRP conjugated anti-β2m for 1 h at 37° C., washed again and detected with TMB solution that is stopped with […]. Absorption was measured at 450 nm. Candidate peptides that show a high exchange yield (preferably higher than 50%, most preferred higher than 75%) are generally preferred for a generation and production of antibodies or fragments thereof, and/or T cell receptors or fragments thereof, as they show sufficient avidity to the MHC molecules and prevent dissociation of the MHC complexes.

Row | Substance | Peptide exchange (MHC class I binding score, peptide exchange yield)
1 | 1 (SLMEPPAVLLL; listed as Homo sapiens) [compound 1] | ″+++″ (≥50% = +++)
2 | 4 (GIMEHITKI; listed as Homo sapiens) [compound 4] | ″++++″ (≥75% = ++++)
3 | 5 (HLTEVYPEL; listed as Homo sapiens) [compound 5] | ″+++″ (≥50% = +++)
4 | 6 (VLVSDGVHSV; listed as Homo sapiens) [compound 6] | ″+++″ (≥50% = +++)
5 | 7 (SLVGLLLYL; listed as Homo sapiens) [compound 7] | ″++++″ (≥75% = ++++)
6 | 9 (GAAKDLPGV; listed as Homo sapiens) [compound 9] | ″++″ (≥20% = ++)
7 | 10 (FLATFPLAAV; listed as Homo sapiens) [compound 10] | ″++++″ (≥75% = ++++)
8 | 12 (SLWPDPMEV; listed as Homo sapiens) [compound 12] | ″+++″ (≥50% = +++)
9 | 14 (AAYGGLNEKSFV; listed as Homo sapiens) [compound 14] | ″+++″ (≥50% = +++)
10 | 15 (VLLTFKIFL; listed as Homo sapiens) [compound 15] | ″++″ (≥20% = ++)
11 | 18 (YLVAKLVEV; listed as Homo sapiens) [compound 18] | ″++″ (≥20% = ++)
12 | 20 (RMIEYFIDV; listed as Homo sapiens) [compound 20] | ″+++″ (≥50% = +++)
13 | 21 (VLDELDMEL; listed as Homo sapiens) [compound 21] | ″++″ (≥20% = ++)
14 | 22 (IMEENPGIFAV; listed as Homo sapiens) [compound 22] | ″+++″ (≥50% = +++)
15 | 24 (SLSDGLEEV; listed as Homo sapiens) [compound 24] | ″++″ (≥20% = ++)
16 | 26 (ALLELAEEL; listed as Homo sapiens) [compound 26] | ″+++″ (≥50% = +++)
17 | 28 (QLLDETSAITL; listed as Homo sapiens) [compound 28] | ″+++″ (≥50% = +++)
18 | 29 (KMLGIPISNILMV; listed as Homo sapiens) [compound 29] | ″+++″ (≥50% = +++)
19 | 30 (LILDWVPYI; listed as Homo sapiens) [compound 30] | ″+++″ (≥50% = +++)
20 | 31 (YLAPELFVNV; listed as Homo sapiens) [compound 31] | ″++″ (≥20% = ++)
21 | 33 (VLLSLLEKV; listed as Homo sapiens) [compound 33] | ″++″ (≥20% = ++)

Row | Substance | Peptide exchange (MHC class I binding score, peptide exchange yield)
22 | 40 (TLLVKVFSV; listed as Homo sapiens) [compound 40] | ″+++″ (≥50% = +++)
23 | 41 (SLMPHIPGL; listed as Homo sapiens) [compound 41] | ″+++″ (≥50% = +++)
24 | 43 (VLSSLEINI; listed as Homo sapiens) [compound 43] | ″++″ (≥20% = ++)
25 | 44 (ILDPISSGFLL; listed as Homo sapiens) [compound 44] | ″++″ (≥20% = ++)
26 | 46 (ILTEENIHL; listed as Homo sapiens) [compound 46] | ″+++″ (≥50% = +++)
27 | 47 (ILLSVPLLVV; listed as Homo sapiens) [compound 47] | ″++″ (≥20% = ++)
28 | 49 (YLPAVFEEV; listed as Homo sapiens) [compound 49] | ″+++″ (≥50% = +++)
29 | 52 (FLLAHGLGFLL; listed as Homo sapiens) [compound 52] | ″++++″ (≥75% = ++++)
30 | 54 (SLLEQGKEPWMV; listed as Homo sapiens) [compound 54] | ″+++″ (≥50% = +++)
31 | 55 (SLLDLETLSL; listed as Homo sapiens) [compound 55] | ″++++″ (≥75% = ++++)
32 | 57 (TLAELQPPVQL; listed as Homo sapiens) [compound 57] | ″+++″ (≥50% = +++)
33 | 59 (IMEDIILTL; listed as Homo sapiens) [compound 59] | ″+++″ (≥50% = +++)
34 | 61 (FLQGYQLHL; listed as Homo sapiens) [compound 61] | ″++++″ (≥75% = ++++)
35 | 62 (VLLDVSAGQLLM; listed as Homo sapiens) [compound 62] | ″++++″ (≥75% = ++++)
36 | 66 (FLDENIGGVAV; listed as Homo sapiens) [compound 66] | ″+++″ (≥50% = +++)
37 | 68 (SLMELPRGLFL; listed as Homo sapiens) [compound 68] | ″++++″ (≥75% = ++++)
38 | 69 (FQLDPSSGVLVTV; listed as Homo sapiens) [compound 69] | ″+++″ (≥50% = +++)
39 | 71 (GILARIASV; listed as Homo sapiens) [compound 71] | ″+++″ (≥50% = +++)
40 | 72 (SLLELDGINL; listed as Homo sapiens) [compound 72] | ″+++″ (≥50% = +++)
41 | 73 (NIFDLQIYV; listed as Homo sapiens) [compound 73] | ″+++″ (≥50% = +++)

The remaining lines, values ahead:

Row | Peptide exchange (MHC class I binding score, peptide exchange yield) | Substance
42 | ″+++″ (≥50% = +++) | 13 (YLMDESLNL; listed as Homo sapiens) [compound 13]
43 | ″+++″ (≥50% = +++) | 16 (VLFQGQASL; listed as Homo sapiens) [compound 16]
44 | ″+++″ (≥50% = +++) | 17 (GLLPGDRLVSV; listed as Homo sapiens) [compound 17]
45 | ″++++″ (≥75% = ++++) | 19 (FMVDNEAIYDI; listed as Homo sapiens) [compound 19]
46 | ″+++″ (≥50% = +++) | 23 (VLLDDIFAQL; listed as Homo sapiens) [compound 23]
47 | ″+++″ (≥50% = +++) | 25 (FLPDEPYIKV; listed as Homo sapiens) [compound 25]
48 | ″+++″ (≥50% = +++) | 27 (ILADIVISA; listed as Homo sapiens) [compound 27]
49 | ″++″ (≥20% = ++) | 32 (KLDDLTQDLTV; listed as Homo sapiens) [compound 32]
50 | ″+++″ (≥50% = +++) | 34 (ILVEADSLWVV; listed as Homo sapiens) [compound 34]
51 | ″+++″ (≥50% = +++) | 35 (KINDTIYEV; listed as Homo sapiens) [compound 35]
52 | ″+++″ (≥50% = +++) | 39 (SVAPNLPAV; listed as Homo sapiens) [compound 39]
53 | ″+++″ (≥50% = +++) | 42 (VLLQKIVSA; listed as Homo sapiens) [compound 42]
54 | ″+++″ (≥50% = +++) | 45 (SLWQDIPDV; listed as Homo sapiens) [compound 45]
55 | ″+++″ (≥50% = +++) | 50 (SLSELEALM; listed as Homo sapiens) [compound 50]
56 | ″++++″ (≥75% = ++++) | 51 (LLPDLEFYV; listed as Homo sapiens) [compound 51]
57 | ″++++″ (≥75% = ++++) | 53 (KMIETDILQKV; listed as Homo sapiens) [compound 53]
58 | ″++++″ (≥75% = ++++) | 60 (SLTIDGIYYV; listed as Homo sapiens) [compound 60]
59 | ″++″ (≥20% = ++) | 63 (YLLPSGGSVTL; listed as Homo sapiens) [compound 63]
60 | ″++″ (≥20% = ++) | 64 (YAAPGGLIGV; listed as Homo sapiens) [compound 64]
61 | ″+++″ (≥50% = +++) | 67 (TLLAEALVTV; listed as Homo sapiens) [compound 67]
62 | ″+++″ (≥50% = +++) | 70 (GLLDYPVGV; listed as Homo sapiens) [compound 70]
